Source: publication PMC6465933, “Direct Binding of the Flexible C-Terminal Segment of Periaxin to β4 Integrin Suggests a Molecular Basis for CMT4F” (Frontiers in Molecular Neuroscience, 2019)

B1: rat L-PRX C-terminal region (amino acids 1036–1383) (domain or fragment, UniProt Q63425 1036-1383, looked up)
chain: EVELVTPGAQETEKVTSGVKPSGLQVSTTRQVVAEGQEGAQRVSSLGISLPQVELASFGEAGPEIAAPSAEGTVGSRIQVPQVMLELPGTQVAGGDLLVGEGIFKMPTVTVPQLELDVGLGHEAQAGETAKSEGGLKLKLPTLGAGGKGEGAEAQSPEAQHTFHISLPDVELTSPVSSHAEYQVVEGDGDGGHKLKVRLPLFGLARAKEGIETGEKVKSPKLRLPRVGFSQSESASGEGSPSPEEEEEGSGEGASGRRGRVRVRLPRVGLASPSKGSKGQEGDAASKSPVGEKSPKFRFPRVSLSPKARSGSKDREEGGFRVRLPSVGFSETAAPGSARIEGTQAAAI
notes: After TEV cleavage an additional N-terminal Ser residue is left; also called rPRX-C; source: E. coli BL21(DE3), purified (Ni-NTA in urea, TEV cleavage, second Ni-NTA, SEC)
B3: His-tagged rat β4-FNIII-3 (β4 integrin amino acids 1512–1602) (domain or fragment, UniProt Q64632 1512-1602, looked up)
chain: PDTPTRLVFSALGPTSLKVSWQEPQCDRALLGYSVEYQLLNGGEMHRLNIPNPGQTSVVVEDLLPNHSYVFRVRAQSQEGWGREREGVITI
notes: β4 integrin, third cytoplasmic fibronectin type III domain, rat, amino acids 1512-1602, synthetic gene in pJ401; No tag cleavage is described for this protein; the His tag is partly seen in the crystal structure; also called His-β4-FNIII-3; rFNIII-3; source: E. coli BL21(DE3), purified (Ni-NTA, SEC)

Legend:
[1] = biological target: B3; assay: SEC-MALS; with QELS; equimolar complex (145 μM each), Superdex 200 increase 3.2/300GL, 20 mM Tris, 150 mM NaCl, pH 7.4, ambient temperature; details: both partners purified
[2] = biological target: T1, β4 integrin FNIII-3 (Homo sapiens, UniProt P16144); assay: ITC
T1 chain: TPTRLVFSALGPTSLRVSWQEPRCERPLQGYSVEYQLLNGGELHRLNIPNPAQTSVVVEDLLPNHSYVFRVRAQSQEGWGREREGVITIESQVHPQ

[3] = biological target: B1; assay: ITC; 680 μM β4-FNIII-3 titrated into 68 μM PRX-C, 25°C, 20 mM HEPES, 150 mM NaCl, pH 7.5; details: both partners purified

B1
stoichiometry N [1]: 1

B2: periaxin C-terminal segment (protein)
chain: SGRRGRVRVRLPRVGLAAPSKASRGQEGDAAPKSPVREKSPKFRFPRVSLSPKARSGSGDQEEGGLRVRLPSVGFSETGAPGPARMEGAQAAAV
Kd [2]: 1700 nM

B3
Kd [3]: 1700 ± 100 nM | dH [3]: 6.2 ± 0.06 kcal/mol | stoichiometry N [3]: ~1
